Patent CN1930187A (ABGENIX INC, dated 2007)

T1: EGFRvIII PEP3 peptide conjugated to OVA (EGFRvIII肽-OVA) (human, Cys 14 coupled to maleimide-activated ovalbumin (peptide:OVA 14.5:1))
T1 construct: also called EGFRvIII peptide-OVA; VIII-pep-OVA
T1 peptide: LEEKKGNYVVTDHC


Legend:
[1] = biological target: EGFRvIII (full length, expressed by cells: NR6 M, H1477, 300.19/EGFRvIII) (human, UniProt P00533 298-1210); assay: cell-based or functional assay
[2] = biological target: T1, EGFRvIII PEP3 peptide conjugated to OVA …; assay: binding to pep3 (XenoMax screen)

Binder	%内在化 [1]	binding result [2]
SC-EGFRvIII-XG1-139 (antibody, human IgG1, V domains shown) VH: EVQVLESGGGLVQPGGSLRLSCAASGFTFSSYAMSWVRQAPGKGLEWVSAISGSGGSTNYADSVKGRFTISRDNSKNTLYLQMNSLRAEDTAVYYCAGSSGWSEYWGQGTLVTVSS VL: DIQMTQSPSSLSASVGDRVTITCRASQGIRNNLAWYQQKPGKAPKRLIYAASNLQSGVPSRFTGSGSGTEFTLIVSSLQPEDFATYYCLQHHSYPLTSGGGTKVEIK	80.8%	
AB-EGFRvIII-XG1K-13.1.2 (antibody, V domains shown, Human IgG1 kappa from a XenoMouse G1 hybridoma; Residue numbers of the mutants count on this running numbering) VH: QVQLVESGGGVVQPGRSLRLSCAASGFTFSSYGMHWVRQAPGKGLEWVAVIWYDGSNKYYVDSVKGRFTISRDNSKNTLYLQMNSLRAEDTAVYYCARDGWQQLAPFDYWGQGTLVTVSS VL: not shown	82.5%	
SC-EGFRvIII-XG1-131 (antibody, V domains shown, Recombinant human antibody (XenoMax)) VH: QVQLVESGGGVVQSGRSLRLSCAASGFTFRNYGMHWVRQAPGKGLEWVAVIWYDGSDKYYADSVRGRFTISRDNSKNTLYLQMNSLRAEDTAVYYCARDGYDILTGNPRDFDYWGQGTLVTVSS VL: DTVMTQTPLSSHVTLGQPASISCRSSQSLVHSDGNTYLSWLQQRPGQPPRLLIYRISRRFSGVPDRFSGSGAGTDFTLEISRVEAEDVGVYYCMQSTHVPWTFGQGTKVEIK		binds

Further lines, results first:

%内在化 [1]	binding result [2]	Binder
21.6%		SC-EGFRvIII-XG1-211 (antibody, human IgG1, V domains shown) VH: QVQLVESGGGVVQPGRSLRLSCVASGFTLSSYGMHWVRQAPGKGLEWVAVTSYDGSKKDYADSAKGRFTISRDNSKNTLYLQMNSLRAEDTAVYYCVSEGYCSSSSCYKYYYYGMDVWGQGTTVTVSS VL: DIVMTQSPLSLPVTPGEPASISCRSSQSLLYRNGNNYLDWYLQRPGQSPQLLIYLGSNRASGVPDRFSGSGSGTDFTLKISRVEAEDVGVYYCMQALQTPRTFGQGTKVEIK
16.7%	binds	SC-EGFRvIII-XG1-250 (antibody, human IgG1, V domains shown, also called sc250; SC250) VH: EGQLLESGGGWVQPGESLRLSCAASGFTFSSYAMSWVRQAPGKGLEWVSAISGSGGSTNYADSVKGRFTISRDNSKNTLYLQVNSLRVEDTAVYYCAGSSGWSEYWGQGTLVTVSS VL: DIQMTQSPSSLSASVGDSVTITCRTSQGIRKNLGWYQQKPGKAPKRLIYAASSLQSGVPSRFSGSGSGTEFTLTISRLQPEDFATYYCLQHHSYPLTFGGGTRVEIR
72.4%		AB-EGFRvIII-XG1-095 (antibody, human IgG1, V domains shown) VH: QVQLQESGPFLVKPSQTLSLTCTVSGGSISSGGYYWSWIRQHPGKGLEWIGFIYYRGNTYYNPSLKSRVTISVDTSKNQFSLKLSSVTAADTAVYYCARDGYCSRTGCYGGWFDPWGQGTLVTVSP VL: DIVMTQTPLSSPVTLGQPASISCRSSQSLIHTDGNIYLSWLQQRPGQPPRLLIYKISNRFSGVPDRFSGSGAGTDFTLKISRVEAEDVGVYYCMQGTQFPITFGQGTRLEIK
20%		SC-EGFRvIII-XG2-150 (antibody, human IgG1, V domains shown) VH: QVQLQQSGPGLVKPSQTLSLTCAISGDSVSSYSSAWNWIRQSPSRGLEWLGRAYHRSRWYYEYAVSVKSRINITPDTSKNQFSLQLNSVTPEDTAVYYCARGSRFDYWGQGTLVTVSS VL: DIVMTQTPLSSPVTLGQPASISCRSSQSLVHRDGNTYLSWLQQRPGQPPRLLIYKISNRFSGVPDRFSGSGAGTDFTLKISRVEAEDVGIYFCMHTTQFPWTFGQGTRVEIK
20.1%		SC-EGFRvIII-XG2-170 (antibody, human IgG1, V domains shown) VH: QVQLQQSGPGLVKPSQTLSLTCAISGDSVSSNNAAWNWIRQSPARGLEWLGRTYYRSKWYNDYVVSVKSRITINPDTSKNQFSLQLNSVTPEDTAVYYCVRATAFDYWGQGTLVTVSS VL: AIVLTQTPLSSPVTLGQPASISCRSSQSLVHRDGNTYLSWLQQRPGQPPRLLIYKISNRFSGVPDRFSGSGAGTDFTLKISRVEPDDVGVYYCMHTTQLPWTFGQGTKVEIK
